In patent US20140289906A1, “Compositions Having Dicamba Decarboxylase Activity and Methods of Use” (priority 2013, published 2014):

B1: A328D: point mutation of SEQ ID NO:109 (protein)
chain: MAQGKVALEEHFAIPETLQDSAGFVPGDYWKELQHRLLDIQDTRLKLMDAHGIETMILSLNAPAVQAIPDRRKAIEIARRANDVLAEECAKRPDRFLAFAALPLQDPDAATEELQRCVNDLGFVGALVNGFSQEGDGQTPLYYDLPQYRPFWGEVEKLDVPFYLHPRNPLPQDSRIYDGHPWLLGPTWAFAQETAVHALRLMASGLFDEHPRLNIILGHMGEGLPYMMWRIDHRVAWVKLPPRYPAKRRFMDYFNENFHITTSGNFRTQTLIDAILEIGADRILFSTDWPFENIDHASDWFNATSIAEADRVKIGRTNARRLFKLDGD
modifications: Dicamba decarboxylase variant clone DC.4.032
B2: G27A: point mutation of SEQ ID NO:109 (protein)
chain: MAQGKVALEEHFAIPETLQDSAGFVPADYWKELQHRLLDIQDTRLKLMDAHGIETMILSLNAPAVQAIPDRRKAIEIARRANDVLAEECAKRPDRFLAFAALPLQDPDAATEELQRCVNDLGFVGALVNGFSQEGDGQTPLYYDLPQYRPFWGEVEKLDVPFYLHPRNPLPQDSRIYDGHPWLLGPTWAFAQETAVHALRLMASGLFDEHPRLNIILGHMGEGLPYMMWRIDHRVAWVKLPPRYPAKRRFMDYFNENFHITTSGNFRTQTLIDAILEIGADRILFSTDWPFENIDHASDWFNATSIAEADRVKIGRTNARRLFKLDGA
modifications: Dicamba decarboxylase variant clone DC.4.032
B3: D42M: point mutation of SEQ ID NO:109 (protein)
chain: MAQGKVALEEHFAIPETLQDSAGFVPGDYWKELQHRLLDIQMTRLKLMDAHGIETMILSLNAPAVQAIPDRRKAIEIARRANDVLAEECAKRPDRFLAFAALPLQDPDAATEELQRCVNDLGFVGALVNGFSQEGDGQTPLYYDLPQYRPFWGEVEKLDVPFYLHPRNPLPQDSRIYDGHPWLLGPTWAFAQETAVHALRLMASGLFDEHPRLNIILGHMGEGLPYMMWRIDHRVAWVKLPPRYPAKRRFMDYFNENFHITTSGNFRTQTLIDAILEIGADRILFSTDWPFENIDHASDWFNATSIAEADRVKIGRTNARRLFKLDGA
modifications: Dicamba decarboxylase variant clone DC.4.032
B4: G27T: point mutation of SEQ ID NO:109 (protein)
chain: MAQGKVALEEHFAIPETLQDSAGFVPTDYWKELQHRLLDIQDTRLKLMDAHGIETMILSLNAPAVQAIPDRRKAIEIARRANDVLAEECAKRPDRFLAFAALPLQDPDAATEELQRCVNDLGFVGALVNGFSQEGDGQTPLYYDLPQYRPFWGEVEKLDVPFYLHPRNPLPQDSRIYDGHPWLLGPTWAFAQETAVHALRLMASGLFDEHPRLNIILGHMGEGLPYMMWRIDHRVAWVKLPPRYPAKRRFMDYFNENFHITTSGNFRTQTLIDAILEIGADRILFSTDWPFENIDHASDWFNATSIAEADRVKIGRTNARRLFKLDGA
modifications: Dicamba decarboxylase variant clone DC.4.032
B5: A328R: point mutation of SEQ ID NO:109 (protein)
chain: MAQGKVALEEHFAIPETLQDSAGFVPGDYWKELQHRLLDIQDTRLKLMDAHGIETMILSLNAPAVQAIPDRRKAIEIARRANDVLAEECAKRPDRFLAFAALPLQDPDAATEELQRCVNDLGFVGALVNGFSQEGDGQTPLYYDLPQYRPFWGEVEKLDVPFYLHPRNPLPQDSRIYDGHPWLLGPTWAFAQETAVHALRLMASGLFDEHPRLNIILGHMGEGLPYMMWRIDHRVAWVKLPPRYPAKRRFMDYFNENFHITTSGNFRTQTLIDAILEIGADRILFSTDWPFENIDHASDWFNATSIAEADRVKIGRTNARRLFKLDGR
modifications: Dicamba decarboxylase variant clone DC.4.032
B6: G52E: point mutation of SEQ ID NO:109 (protein)
chain: MAQGKVALEEHFAIPETLQDSAGFVPGDYWKELQHRLLDIQDTRLKLMDAHEIETMILSLNAPAVQAIPDRRKAIEIARRANDVLAEECAKRPDRFLAFAALPLQDPDAATEELQRCVNDLGFVGALVNGFSQEGDGQTPLYYDLPQYRPFWGEVEKLDVPFYLHPRNPLPQDSRIYDGHPWLLGPTWAFAQETAVHALRLMASGLFDEHPRLNIILGHMGEGLPYMMWRIDHRVAWVKLPPRYPAKRRFMDYFNENFHITTSGNFRTQTLIDAILEIGADRILFSTDWPFENIDHASDWFNATSIAEADRVKIGRTNARRLFKLDGA
modifications: Dicamba decarboxylase variant clone DC.4.032
B7: L38I: point mutation of SEQ ID NO:109 (protein)
chain: MAQGKVALEEHFAIPETLQDSAGFVPGDYWKELQHRLIDIQDTRLKLMDAHGIETMILSLNAPAVQAIPDRRKAIEIARRANDVLAEECAKRPDRFLAFAALPLQDPDAATEELQRCVNDLGFVGALVNGFSQEGDGQTPLYYDLPQYRPFWGEVEKLDVPFYLHPRNPLPQDSRIYDGHPWLLGPTWAFAQETAVHALRLMASGLFDEHPRLNIILGHMGEGLPYMMWRIDHRVAWVKLPPRYPAKRRFMDYFNENFHITTSGNFRTQTLIDAILEIGADRILFSTDWPFENIDHASDWFNATSIAEADRVKIGRTNARRLFKLDGA
modifications: Dicamba decarboxylase variant clone DC.4.032
B8: D42S: point mutation of SEQ ID NO:109 (protein)
chain: MAQGKVALEEHFAIPETLQDSAGFVPGDYWKELQHRLLDIQSTRLKLMDAHGIETMILSLNAPAVQAIPDRRKAIEIARRANDVLAEECAKRPDRFLAFAALPLQDPDAATEELQRCVNDLGFVGALVNGFSQEGDGQTPLYYDLPQYRPFWGEVEKLDVPFYLHPRNPLPQDSRIYDGHPWLLGPTWAFAQETAVHALRLMASGLFDEHPRLNIILGHMGEGLPYMMWRIDHRVAWVKLPPRYPAKRRFMDYFNENFHITTSGNFRTQTLIDAILEIGADRILFSTDWPFENIDHASDWFNATSIAEADRVKIGRTNARRLFKLDGA
modifications: Dicamba decarboxylase variant clone DC.4.032
B9: G27S: point mutation of SEQ ID NO:109 (protein)
chain: MAQGKVALEEHFAIPETLQDSAGFVPSDYWKELQHRLLDIQDTRLKLMDAHGIETMILSLNAPAVQAIPDRRKAIEIARRANDVLAEECAKRPDRFLAFAALPLQDPDAATEELQRCVNDLGFVGALVNGFSQEGDGQTPLYYDLPQYRPFWGEVEKLDVPFYLHPRNPLPQDSRIYDGHPWLLGPTWAFAQETAVHALRLMASGLFDEHPRLNIILGHMGEGLPYMMWRIDHRVAWVKLPPRYPAKRRFMDYFNENFHITTSGNFRTQTLIDAILEIGADRILFSTDWPFENIDHASDWFNATSIAEADRVKIGRTNARRLFKLDGA
modifications: Dicamba decarboxylase variant clone DC.4.032
B10: D42A: point mutation of SEQ ID NO:109 (protein)
chain: MAQGKVALEEHFAIPETLQDSAGFVPGDYWKELQHRLLDIQATRLKLMDAHGIETMILSLNAPAVQAIPDRRKAIEIARRANDVLAEECAKRPDRFLAFAALPLQDPDAATEELQRCVNDLGFVGALVNGFSQEGDGQTPLYYDLPQYRPFWGEVEKLDVPFYLHPRNPLPQDSRIYDGHPWLLGPTWAFAQETAVHALRLMASGLFDEHPRLNIILGHMGEGLPYMMWRIDHRVAWVKLPPRYPAKRRFMDYFNENFHITTSGNFRTQTLIDAILEIGADRILFSTDWPFENIDHASDWFNATSIAEADRVKIGRTNARRLFKLDGA
modifications: Dicamba decarboxylase variant clone DC.4.032

Assay: Saturation mutagenesis of SEQ ID NO:109: dicamba decarboxylation activity of point mutants (Table 7)
[1] = dicamba decarboxylation activity of point mutants of SEQ ID NO: 109 from NNK saturation mutagenesis, 0.7-fold used as cut-off
[2] = point mutant of SEQ ID NO:109, dicamba decarboxylation activity relative to the unchanged template

| Molecule | Average Activity (Fold of SEQ ID NO: 109) [1] | Average Activity (Fold of SEQ ID NO: 109) [2] |
| --- | --- | --- |
| B1 | 2.3 Fold of SEQ ID NO: 109 | 2.3 Fold of SEQ ID NO: 109 |
| B2 | 2.0 Fold of SEQ ID NO: 109 | – |
| B3 | 2.4 Fold of SEQ ID NO: 109 | 2.4 Fold of SEQ ID NO: 109 |
| B4 | 2.0 Fold of SEQ ID NO: 109 | – |
| B5 | 3.0 Fold of SEQ ID NO: 109 | – |
| B6 | 3.1 Fold of SEQ ID NO: 109 | 3.1 Fold of SEQ ID NO: 109 |
| B7 | 2.0 Fold of SEQ ID NO: 109 | 2.0 Fold of SEQ ID NO: 109 |
| B8 | 2.0 Fold of SEQ ID NO: 109 | – |
| B9 | 2.2 Fold of SEQ ID NO: 109 | 2.2 Fold of SEQ ID NO: 109 |
| B10 | 2.0 Fold of SEQ ID NO: 109 | – |
